Experimental findings from the RNAGym collection of RNA variant scans (doi:10.7554/elife.80360) are described below.

B1: Hammerhead Ribozyme (parent)
chain: ACCGGAUGUGCUUUCCGGUCUGAUGAGUCCGUGAGGACGAAACAG

In this data set the parent is B1. The experiment in a line: self-cleavage, relative activity (ratio to wild type); higher = more cleavage; co-transcriptional.
As to ACCGGAUGUGCUUUCCGUUCUGAUGACUCCGUGAGGACGAAACAG, the self-cleavage was 0.427.

For ACCGGAUGUGCUUUCCGGUCUGAUGGGUCCGUGAGAACGAAACAG, the self-cleavage is 0.319.

With ACCGGAUGUGGUUUCCGGUCUGAUGAGUCAGUGAGGACGAAACAG, the self-cleavage was 1.26. In the case of ACCGGAUGAGCUUUCCGGUCUGAUGAGUCCGUGAGGAGGAAACAG, the self-cleavage amounted to 0.682. Consider ACCGGAUGUGCUUUCCGGUCUGAUGAGUCUGUGAGGACGAAACUG, for which the self-cleavage was found to be 0.625.

In the case of ACCGGAUGUGCUUUCCGGUCUGAUGAGUUCGUGAGGGCGAAACAG, the self-cleavage worked out at 0.751. In the case of CCCGGAUGUGCUUUCCGGUCUGAUGAGUCCGUGAGGACGAAACUG, the self-cleavage turned out to be 0.377. Consider ACCGGAUGUGCUUUCCGGUCUGAGGAGACCGUGAGGACGAAACAG, for which the self-cleavage amounted to 0.912. For the variant ACCGGAUGAGCUUUCCGGUCUGAUGAGUCCGCGAGGACGAAACAG, the self-cleavage was found to be 0.953. Turning to ACCGGAUGUGCUUUUCGGUCUGAUGAGUCCAUGAGGACGAAACAG, the self-cleavage turned out to be 0.781. ACCGGAUGUCCUUUCCGGUCUGAUGAGUCCGUGAGGACUAAACAG: the self-cleavage turned out to be 0.307. The figure for ACCGGAUGUGCUUUCCGGUCUGAUGAGUCCGUGAGCAAGAAACAG is 0.403; for ACCGGAUGUGAUUUCCGGUCUGAUGAGUACGUGAGGACGAAACAG it is 0.783; for ACCGGAUGUGCUUUCUGGUCUGAUGAGUCCGUGAGGGCGAAACAG it is 1.02. With ACCGGAUGUGCUUUCCGGUCUGAUGAGUCCGUGAUGACGUAACAG, the self-cleavage was determined as 0.366. Regarding ACCGGAUGUGCUUUCCGCUCUGAUGAGUCCGUGAAGACGAAACAG, the self-cleavage worked out at 0.537. Take ACCGGAUGUGCUUUCCGGUCUGAUAAGUCCGUGAGGAUGAAACAG: the self-cleavage is 0.317. Take CCCGUAUGUGCUUUCCGGUCUGAUGAGUCCGUGAGGACGAAACAG: the self-cleavage worked out at 0.444.

As to ACCGGAUGUGCUUUCCGGUCUGAUGAGUACGUGAGGACUAAACAG, the self-cleavage was determined as 0.387.

Turning to ACCGGAUGUGCUUCCCGGUCUGAUGAGUCCGCGAGGACGAAACAG, the self-cleavage worked out at 0.61.

Take ACCGGAUGUGCUUUCCGGUCUCAUGAGUCCGUGAGGACGAAACCG: the self-cleavage amounted to 0.369. ACCGGAUGUGCUUUCCGGUCUGACGAGUCCGUGAGGACGAAACAU: the self-cleavage was 0.669. Take ACCGGAUGUGCUUUCCGGUCUGAUGAGCCCGUGAGGAAGAAACAG: the self-cleavage was 0.789. With ACCGGAUGUGCUUUCCGGUCUAAUGAGUCCGUGAGGACGAUACAG the figure was 0.318. On to ACCGGAUGUGCUUUCCGGUCUGAUGAGUCAGGGAGGACGAAACAG, for which the self-cleavage came out at 0.892.

Turning to AUCGGAUGUGCUUUCCGGUCUGAUGAGUCCGUGGGGACGAAACAG, the self-cleavage was determined as 0.841. Take ACCGGAUGUGCUUUCCGGUCUGAUGAUUCCGUGAGGACGACACAG: the self-cleavage came out at 0.328. With ACUGGAUGUGCUUCCCGGUCUGAUGAGUCCGUGAGGACGAAACAG the figure was 0.669; with ACCGGAUGUGCUUUCCGAUCUGAUGAGCCCGUGAGGACGAAACAG, 0.388; with ACCGGAUGUGCUUUCUGGUCUGAUGAGUCCGUGCGGACGAAACAG, 1. Regarding ACCGGAUGUGCUUUCCGGUCUGAUGAGUCCGUGAGGCCGAAACGG, the self-cleavage amounted to 0.77. The figure for AACGGAUGUGCGUUCCGGUCUGAUGAGUCCGUGAGGACGAAACAG is 0.736; for ACCGGAUGUGCUUUCCGGUCUGAUGAGUCCGUGUGGUCGAAACAG it is 0.412. The figure for ACCGGAUGUGCUUUCCGCUCUGAUGAGUCCGUGAGGUCGAAACAG is 0.483; for ACCGGAUGUGCUUUCCGGUCUGAUGAGUCCGUGACCACGAAACAG it is 0.425.

With ACCGGAUGUGCUUUCCAGUCUGAUGAGUACGUGAGGACGAAACAG, the self-cleavage came out at 0.441. Turning to ACCGGAUGUGCAUUCUGGUCUGAUGAGUCCGUGAGGACGAAACAG, the self-cleavage was found to be 1.1.

On to ACCGGAUGUGCAUUCCGGUCUGUUGAGUCCGUGAGGACGAAACAG, for which the self-cleavage stood at 0.317. With ACCGGAUGUUCUUUCCGGUCUGAUGAGUCCGUGAGGACGAAACAU the figure was 0.926. Turning to ACCGUAUUUGCUUUCCGGUCUGAUGAGUCCGUGAGGACGAAACAG, the self-cleavage worked out at 0.81. With ACCGGAUGUGCUUUCCGGUCUGAUGAGUCCGUGAGGUCGCAACAG the figure was 0.472; with ACCGGAUUUGCUUUCCGGUCUGAUAAGUCCGUGAGGACGAAACAG, 0.317; with ACCGGAUGUGCUUUCUGGUCUGAUGAGUCCGCGAGGACGAAACAG, 0.879. ACCGGAUGUGCUUUCCGGUCUGAUGAGUACGUGAGGCCGAAACAG: the self-cleavage stood at 0.755.

ACCGUAUGUGCUUUCCGGUCUGAUGAGUGCGUGAGGACGAAACAG: the self-cleavage is 0.434. The figure for ACCUUAUGUGCUUUCCGGUCUGAUGAGUCCGUGAGGACGAAACAG is 0.359; for ACCGGAUGUGCUGUCCGGUCUGAUGAGUCCGUAAGGACGAAACAG it is 0.959; for ACCGAAUGUGCUUUCCGGUCUGAUGAGUCCGUGAGGACGAAACGG it is 1.29.

On to ACCGAAUGUGCUUUCCGGUCUGAUGAGUCCGUGAGGACGAAACCG, for which the self-cleavage was 0.662. In the case of ACCGGAUGUGCUUUCGCGUCUGAUGAGUCCGUGAGGACGAAACAG, the self-cleavage came to 0.445.

Turning to ACCGGAUGUGCUUUCUGUUCUGAUGAGUCCGUGAGGACGAAACAG, the self-cleavage was 0.746. With ACCGGAUGUGCUUUCAGGUCUGAUGAGUCCGUGUGGACGAAACAG the figure was 0.719; with ACCGGAUGUGCUUUCCGGCAUGAUGAGUCCGUGAGGACGAAACAG, 0.329; with ACCGGAUGUGCUUUCCGGUCUGAUGAGUCCUUGAUGACGAAACAG, 1.03.

As for ACCGGAUGUGCAUUCCGGUCUGAUGGGUCCGUGAGGACGAAACAG, the self-cleavage amounted to 0.424. With ACCGGAUGUGCUUUCUGGUCUGAUGAGUCCGUGAGGACGGAACAG the figure was 0.294; with ACCGGAUGUGCUUUCCGGUCUGAGGAGUCCGUGGGGACGAAACAG, 0.902.
